According to patent US8394641B2, “Method of hydrolyzing an enzymatic substrate” (Advanced Liquid Logic Inc., priority 2009, dated 2013):
Where two headings read alike, the source gives them in different places. Blank lines part the entries; values can stand above or below the molecule they belong to.

What was measured:
[1] = target: T1, acid β-D-glucosidase (Homo sapiens, UniProt P04062); assay: Droplet-based enzymatic assay for acid β-D-glucosidase (Gaucher), comparison of substrates; assay type: biochemical; conditions: droplet actuator, Gaucher's disease testing
T1 sequence (P04062 40-536): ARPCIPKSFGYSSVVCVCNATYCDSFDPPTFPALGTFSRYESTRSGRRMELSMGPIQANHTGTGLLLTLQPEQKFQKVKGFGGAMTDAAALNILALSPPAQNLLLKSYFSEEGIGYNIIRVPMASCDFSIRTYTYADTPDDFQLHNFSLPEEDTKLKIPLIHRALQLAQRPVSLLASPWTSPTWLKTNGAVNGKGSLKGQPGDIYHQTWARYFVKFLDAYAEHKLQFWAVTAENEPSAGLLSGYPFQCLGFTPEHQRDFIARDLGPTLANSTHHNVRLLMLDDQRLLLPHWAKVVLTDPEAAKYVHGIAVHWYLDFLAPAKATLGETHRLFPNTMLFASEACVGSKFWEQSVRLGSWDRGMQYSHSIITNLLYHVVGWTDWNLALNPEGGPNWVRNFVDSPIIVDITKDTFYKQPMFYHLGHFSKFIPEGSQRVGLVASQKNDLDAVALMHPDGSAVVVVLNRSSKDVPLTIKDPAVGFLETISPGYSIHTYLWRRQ
From the text: The invention provides assay methods for detection of Gaucher and Niemann-Pick diseases on a droplet actuator. Gaucher's disease and Niemann-Pick's disease are caused by deficient activity of the lysosomal enzymes acid β-D-glucosidase and acid sphingomyelinase, respectively. In one embodiment, the invention provides methods for a droplet-based enzymatic assay for acid β-D-glucosidase activity. For example, a multifluoroethylumbelliferyl-β-D-glucoside, such as a 4-pentafluoroethylumbelliferyl-β-D-glucoside, may be used as a substrate fluid in a droplet-based enzymatic assay for acid β-D-glucosidase enzyme activity. The increased number of fluorines makes the substrate fluid more labile to hydrolysis. The excitation/emission wavelengths for 4-pentafluoroethylumbelliferyl-β-D-glucoside are 385/495 nm.

[2] = target: iduronate-2-sulfate sulphatase (IDS) (Homo sapiens, UniProt P22304); conditions: cited from earlier work
[3] = Modified Hunter's assay (IDS) on a droplet actuator, recombinant iduronidase as second enzyme; assay type: biochemical, human
Method: Reagent solutions were prepared on-bench, and the experiment was performed on a droplet actuator using a digital microfluidic protocol. Different dilutions (1/10×, 1/4×, 1/3×, 1/2× and 1×) of plasma samples from normal (n=1) and affected (n=1) subjects were prepared using molecular grade water. A blank sample was prepared using 1 μg/mL of recombinant iduronidase in 0.05 M Na-Acetate/0.05 M Acetic acid buffer pH 5.0. A working stock of 10 μg/mL recombinant iduronidase in 0.05 M Na-Acetate/0.05 M Acetic acid buffer pH 5.0 was prepared from a stock of 0.5 mg/mL iduronidase (supplied in 0.05 M Na-Acetate with 150 mM NaCl, 0.02% Brij-35 (w/v) pH 3.5). A working stock of 1.25 mM MU-αIdoA-S substrate fluid was prepared in 0.1 M Na-Acetate, 0.1M Acetic Acid buffer pH 5.0 containing 10 mM Pb-Acetate. A substrate fluid was prepared by mixing 1 μL of 10 μg/mL recombinant iduronidase and 9 μL of 1.25 mM MU-αIdoA-S.
In one example, the digital microfluidic protocol for testing plasma sample dilutions included the following steps: • 1. […] Detect fluorescence at 364 nm (t=0 h); • 7. […] Detect fluorescence at 364 nm (t=8 h).
Eight different normal plasma samples were analyzed using two concentrations of recombinant iduronidase (i.e., 1 μg/mL and 10 μg/mL) in the modified Hunter's assay. […]

[4] = Recombinant iduronidase standard curve in the presence of BSA on a droplet actuator; assay type: biochemical; conditions: after stop buffer, room temperature
Method: Serial dilutions of recombinant iduronidase were prepared in 0.05 M Na-Acetate/0.05 M Acetic acid buffer, pH 5.0 from a stock of 0.5 mg/mL recombinant iduronidase containing 1 mg/mL molecular biology grade bovine serum albumin (BSA). A substrate fluid was prepared in 0.05 M Na Acetate, pH 5.0 containing 1 mM 4-methylumbelliferyl-α-L-idopyranosiduronic acid (4-MUI) and 100 μM D-saccharic acid 1,4-lactone.
The digital microfluidic protocol for the iduronidase standard curve included the following steps: • 1. Mix one 1× droplet of iduronidase and one 1× droplet of substrate fluid to yield a 2× reaction droplet; • 2. Split the 2× reaction droplet into two 1× reaction droplets; • 3. Dispense 11 droplets of stop buffer (sodium carbonate pH 10.1, 0.01% Tween® 20) and combine them with the first set of 1× reaction droplets; • 4. Detect end point fluorescence at 365 nm (t=0); • 5. Incubate the second set of 1× reaction droplets for 1 h at room temperature; • 6. After 1 h of incubation, dispense 11 droplets of stop buffer and combine with the reaction droplets; and • 7. Detect end point fluorescence at 365 nm (t=1 h).

[5] = stock solution; cited from earlier work

iduronate-2-sulfate sulphatase (IDS), sequence (P22304 34-550): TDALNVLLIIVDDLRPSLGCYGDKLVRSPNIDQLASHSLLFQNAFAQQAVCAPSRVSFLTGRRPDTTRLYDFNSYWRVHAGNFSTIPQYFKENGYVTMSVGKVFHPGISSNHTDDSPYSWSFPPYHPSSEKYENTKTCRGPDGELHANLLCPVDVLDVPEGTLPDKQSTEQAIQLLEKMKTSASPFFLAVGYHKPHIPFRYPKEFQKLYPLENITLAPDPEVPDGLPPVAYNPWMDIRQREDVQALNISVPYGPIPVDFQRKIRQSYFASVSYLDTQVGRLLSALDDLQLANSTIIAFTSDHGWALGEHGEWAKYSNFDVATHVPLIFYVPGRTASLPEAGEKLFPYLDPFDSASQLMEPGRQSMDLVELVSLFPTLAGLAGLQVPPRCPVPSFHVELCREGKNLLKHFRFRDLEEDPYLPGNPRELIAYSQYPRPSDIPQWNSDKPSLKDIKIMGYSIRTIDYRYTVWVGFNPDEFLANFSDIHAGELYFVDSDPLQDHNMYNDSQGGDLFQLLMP

enzymatic activity compared with the 4-methylumbelliferyl-β-D-glucoside substrate fluid [1]: as much as eight-fold greater
Molecule: O=c1cc(C(F)(F)C(F)(F)F)c2ccc(O[C@@H]3O[C@H](CO)[C@@H](O)[C@H](O)[C@H]3O)cc2o1 [4-pentafluoroethylumbelliferyl-β-D-glucoside]

Molecule: Cl [chloride]
IDS activity inhibited ([2]; 30 mM chloride): 50%
IDS activity inhibited ([2]; 250 mM chloride): completely inhibited

concentration dependence of Hunter's assay activity ([3]; 1 μg/mL vs 10 μg/mL, eight normal plasma samples): higher activity at 10 μg/mL
liberation of 4-MU from 4-methylumbelliferyl-α-L-iduronic acid in the IDS assay ([3]; 1 μg/ml, data not shown): sufficient
Relative fluorescence at t = 1 hrs incubation (Rfu) ([4]; Idu 0.001 μg/mL): 34.6948 Rfu
Relative fluorescence at t = 1 hrs incubation (Rfu) ([4]; Idu 0.01 μg/mL): 179.1927 Rfu
Relative fluorescence at t = 1 hrs incubation (Rfu) ([4]; Idu 0.1 μg/mL): 999.3997 Rfu
Relative fluorescence at t = 1 hrs incubation (Rfu) ([4]; Idu 1 μg/mL): 7427.665 Rfu
B1: recombinant iduronidase: Recombinant α-L-Iduronidase from R&D Systems, second enzyme of the Hunter's assay (protein, UniProt P35475 28-653, looked up)
Alpha-L-iduronidase: APHLVHVDAARALWPLRRFWRSTGFCPPLPHSQADQYVLSWDQQLNLAYVGAVPHRGIKQVRTHWLLELVTTRGSTGRGLSYNFTHLDGYLDLLRENQLLPGFELMGSASGHFTDFEDKQQVFEWKDLVSSLARRYIGRYGLAHVSKWNFETWNEPDHHDFDNVSMTMQGFLNYYDACSEGLRAASPALRLGGPGDSFHTPPRSPLSWGLLRHCHDGTNFFTGEAGVRLDYISLHRKGARSSISILEQEKVVAQQIRQLFPKFADTPIYNDEADPLVGWSLPQPWRADVTYAAMVVKVIAQHQNLLLANTTSAFPYALLSNDNAFLSYHPHPFAQRTLTARFQVNNTRPPHVQLLRKPVLTAMGLLALLDEEQLWAEVSQAGTVLDSNHTVGVLASAHRPQGPADAWRAAVLIYASDDTRAHPNRSVAVTLRLRGVPPGPGLVYVTRYLDNGLCSPDGEWRRLGRPVFPTAEQFRRMRAAEDPVAAAPRPLPAGGRLTLRPALRLPSLLLVHVCARPEKPPGQVTRLRALPLTQGQLVLVWSDEHVGSKCLWTYEIQFSQDGKAYTPVSRKPSTFNLFVFSPDTGAVSGSYRVRALDYWARPGPFSDPVPYLEVPVPRGPPSPGNP
specific activity of stock enzyme [5]: > 7.5 nmol/min/µg
